Test [1] has as its target Vps74 (endogenous, wild-type yeast cells) (Saccharomyces cerevisiae (strain ATCC …, UniProt Q06385)). Kind of test: co-IP.
A further test deals with Twin-Strep-Vps74 (yeast, UniProt Q06385). The test can be described thus: pull-down.
Test [2] concerns the target Vps74 (bacterially expressed, as used in the in vitro mixing assays) (yeast, UniProt Q06385). Kind of test: pull-down.

These results are taken from article doi:10.1101/2025.02.10.637573 (bioRxiv, 2025).

Chain of Vps74 (bacterially expressed, as used in the in vitro mixing assays) (Q06385 whole entry): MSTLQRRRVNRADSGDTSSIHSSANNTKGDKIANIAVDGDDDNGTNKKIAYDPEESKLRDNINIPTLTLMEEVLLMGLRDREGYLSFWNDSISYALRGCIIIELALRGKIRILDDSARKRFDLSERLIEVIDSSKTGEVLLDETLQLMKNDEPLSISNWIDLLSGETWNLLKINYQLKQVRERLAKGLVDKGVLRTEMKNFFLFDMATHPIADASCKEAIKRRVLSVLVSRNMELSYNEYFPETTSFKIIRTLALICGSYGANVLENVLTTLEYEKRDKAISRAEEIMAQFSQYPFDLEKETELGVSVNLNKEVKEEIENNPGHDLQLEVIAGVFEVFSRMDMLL
Chain of Twin-Strep-Vps74 (Q06385 whole entry): as above
Chain of Vps74 (endogenous, wild-type yeast cells) (Saccharomyces cerevisiae (Q06385 whole entry): as above

B1: Vps74InNb#4-HA (expressed in the cytoplasm of yeast cells) (VHH)
VHH: QVQLQESGGGLVQAGGSLRLSCAASGSISTIVGMGWYRQAPGKERELVAAITGGSSTNYADSVKGRFTISRDNAKNTVYLQMNSLKPEDTAVYYCAAVSYEYRSSPYPETYWGQGTQVTVSS
B1: the binding result in test [1] is “binds”.

B2: Vps74InNb#4 (purified from the periplasm of E. coli) (VHH)
VHH: QVQLQESGGGLVQAGGSLRLSCAASGSISTIVGMGWYRQAPGKERELVAAITGGSSTNYADSVKGRFTISRDNAKNTVYLQMNSLKPEDTAVYYCAAVSYEYRSSPYPETYWGQGTQVTVSS
Consider B2, for which the binding result (in the test with Twin-Strep-Vps74; in test [2]) was “binds” throughout.
